Measurements reported in paper PMC5662663 (Scientific Reports, 2017).

B1: Nanobody Nb14 (VHH)
VHH: QLQLVESGGGLVQPGGSLRLSCAASGFTFSSVAMSWVRQAPGKGLEWVSDINSVGSTYYADSVKGRFTISRDNAKNTVYLQMNSLKPEDTAVYYCVPLGERPEIHGGKGTPVTVSS
B2: Nanobody Nb17 (VHH)
VHH: QRQLVESGGGLVQAGGSLRLSCAASGRTFSSYVMGWFRQAPGKEREAVASISWSGGSTYYADSVKGRFTISRDNAKNTVYLQMNSLKPEDTAVYYCAADHRTYYTGTYSPDYWGKGTPVTVSS
notes: Alpaca nanobody selected by phage display against BtuF; source: E. coli WK6, periplasmic extract, purified (IMAC, PD10 desalting)
B3: Nanobody Nb7 (VHH)
VHH: QGQLVESGGGLVQPGGSLRLSCVASGFDFSNYTMSWVRQAPGKGLEWVSDISSGGGSTYYADSVKGRFTISRDNAKNTVYLQMNTLKPEDTAVYLCTELGVAPPGQGTRVTVSS
notes: as for B2
B4: Nanobody Nb9 (VHH)
VHH: QMQLVESGGGLVQPGGSLRLSCAAPESTLDDYAIGWFRQAPGKEREGVSCIGSSGDSTNYADSVKGRFTVSRDNAKNTVYLQMNDLRPEDTAVYYCAAAHRIFGGCLVIHSSGYVSWGQGTPVTVSS
notes: Alpaca nanobody selected by phage display against BtuF; additional disulfide bond between C72 (CDR2) and C128 (CDR3); source: E. coli WK6, periplasmic extract, purified (IMAC, PD10 desalting)
B5: Nanobody Nb15 (VHH)
VHH: QVQLVESGGGLVQPGGSLRLSCTASEATLDDYAIGWFRQAPGKEREGVSCIGSSGDVTHYADSVKGRFTISRDNAKNTGYLQLNNLRPEDTAVYYCAAAHRILGGCLVIHSSDYTSSSKGTRVTVSS
notes: as for B2
B6: Nanobody Nb10 (VHH)
VHH: QLQLVESGGGLVQPGGSLRLSCAASGFTLDYYAIGWFRQAPGKEREGVSCISSSGGSTNYADSVKGRFTISRDNAKNTVYLQMNSLKPEDTAVYYCAADYAGRGFCAGLYDYWSQGTPVTVSS

Experiments:
[1] = target: Fluorescein-labeled variant of BtuF (BtuF_(fluo)) (Escherichia coli) (UniProt P37028); assay: other fluorescence titration; equilibrium competition in solution: 5 nM BtuF_(fluo), Cbl 0.3 nM to 10 μM at a constant nanobody concentration (5 μM Nb14; 1 μM Nb7, Nb15, Nb17; 100 nM Nb9, Nb10); 50 mM Tris-HCl pH 7.5, 200 mM NaCl, 0.001% Tween 20, 23 °C; Ki fitted with Dynafit with Kd of Cbl 8.1 nM as input
[2] = target: T1, BtuF, periplasmic substrate-binding protein of the Escherichia coli vitamin B12 transporter BtuCD-F, tag-less (Escherichia coli (K12 sequence), UniProt P37028); assay: pull-down; His-tagged nanobodies immobilized on Ni-NTA, 1.5 molar excess of tagless BtuF, 1.5 hours at 4 °C; wash 50 mM Tris-HCl pH 7.5, 250 mM NaCl, 10% glycerol, 20 mM imidazole; elution 500 mM imidazole; SDS-PAGE; no Cbl; conditions: both partners purified
T1 construct: the assays name the protein tag-less; also called tag-less BtuF; tagless BtuF; source: prepared as described previously [6,18], purified; not shown: His-tag (3C cleavable), C-terminal, cleaved

[3] = target: Fluorescein-labeled variant of BtuF (BtuF_(fluo)) (Escherichia coli) (UniProt P37028); assay: fluorescence kinetics of nanobody displacement by Cbl; 10 nM BtuF_(fluo) equilibrated with 10 nM nanobody, then 1, 5 or 10 μM Cbl; slow phase of fluorescence decrease at 520 nm gives koff; kon calculated as koff/Ki; 50 mM Tris-HCl pH 7.5, 200 mM NaCl, 0.001% Tween 20, 23 °C

| Binder | Ki [1] | binding result [2] | koff [3] | kon [3] | occupancy of BtuF (fluo) with nanobody (10 nM each) [3] |
| --- | --- | --- | --- | --- | --- |
| B1 | 770 nM |  |  |  |  |
| B2 | 54 nM | binds | 0.0025 s⁻¹ | 46000 M⁻¹ s⁻¹ | 14% |
| B3 | 24 nM | binds | 0.0019 s⁻¹ | 79000 M⁻¹ s⁻¹ | 30% |
| B4 |  | binds |  |  |  |
| B5 | 79 nM | binds |  |  |  |
| B6 | 6 nM |  | 0.0071 s⁻¹ | 1.2e+06 M⁻¹ s⁻¹ | 53% |
